Key:
hMMP16ECD(E247A)-His = molecular target: T1, hMMP16ECD(E247A)-His (human, UniProt P51512 32-564); test: colorimetric ELISA, plate coated with hMMP16-his at 3 ug/mL, antibody 0.5 ug/mL
T1 construct: IgK signal peptide upstream (cleaved); also called hMMP16-his; hMMP16-His protein

hMMP16ECD(E247A)-Fc = molecular target: T2, hMMP16ECD(E247A)-Fc (human, UniProt P51512 32-564); test: MSD ELISA, plate coated with hMMP16ECD(E247A)-Fc at 2 ug/mL, antibody 0.5 ug/mL
T2 construct: IgK signal peptide upstream (cleaved); also called phMMP16ECD(E247A)-Fc; not shown: human IgG2 Fc protein
T2 sequence (P51512 32-564 E247A): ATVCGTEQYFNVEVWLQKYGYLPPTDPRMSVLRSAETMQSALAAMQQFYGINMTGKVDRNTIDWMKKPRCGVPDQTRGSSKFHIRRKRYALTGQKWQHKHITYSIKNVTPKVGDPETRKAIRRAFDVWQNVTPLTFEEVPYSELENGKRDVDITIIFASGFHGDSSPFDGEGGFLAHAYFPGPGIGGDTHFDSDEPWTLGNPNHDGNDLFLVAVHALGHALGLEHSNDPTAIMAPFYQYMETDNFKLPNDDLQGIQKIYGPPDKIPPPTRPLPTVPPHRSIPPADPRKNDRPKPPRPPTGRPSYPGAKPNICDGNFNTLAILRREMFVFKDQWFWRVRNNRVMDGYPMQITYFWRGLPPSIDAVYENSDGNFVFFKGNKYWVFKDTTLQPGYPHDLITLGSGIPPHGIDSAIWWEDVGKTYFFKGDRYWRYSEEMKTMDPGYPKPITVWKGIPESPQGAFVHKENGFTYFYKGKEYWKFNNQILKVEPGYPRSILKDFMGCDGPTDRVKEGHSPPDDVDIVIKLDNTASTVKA

T1 sequence (P51512 other isoform, or with tags, fused parts or gaps E247A E247A): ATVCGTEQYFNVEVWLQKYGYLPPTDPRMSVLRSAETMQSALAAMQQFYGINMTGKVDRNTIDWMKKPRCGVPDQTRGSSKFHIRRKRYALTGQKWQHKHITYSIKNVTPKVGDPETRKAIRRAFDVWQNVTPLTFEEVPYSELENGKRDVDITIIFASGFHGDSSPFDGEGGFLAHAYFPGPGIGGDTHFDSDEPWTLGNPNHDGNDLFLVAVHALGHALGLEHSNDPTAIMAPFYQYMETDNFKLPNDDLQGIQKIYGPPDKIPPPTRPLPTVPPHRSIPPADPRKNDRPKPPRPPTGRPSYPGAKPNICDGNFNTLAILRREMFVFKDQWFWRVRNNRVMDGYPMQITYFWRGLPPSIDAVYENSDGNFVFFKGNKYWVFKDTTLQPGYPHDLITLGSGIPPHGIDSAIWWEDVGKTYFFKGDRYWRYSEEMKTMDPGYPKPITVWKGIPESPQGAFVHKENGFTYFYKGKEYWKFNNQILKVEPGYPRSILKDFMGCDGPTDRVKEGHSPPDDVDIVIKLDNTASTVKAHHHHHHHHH

Row | binding result (hMMP16ECD(E247A)-His) | binding result (hMMP16ECD(E247A)-Fc) | Binder
1 | binds | – | SC73.101 (antibody, V domains shown, Murine hybridoma antibody, second inoculation campaign; mouse IgG2a was used as its isotype control in IHC; also called anti-MMP16 antibody (clone SC73.101)) VH: QIHLVQSGPELKKPGETVKISCKASGYTFTDYSMHWVKQAPGKGLKWMGWINTETGEPTYPDDFKGRFAFSLETSASTAYLQINNLKNEDTATYFCARGYGYDETGTFAYWGQGTLVTVSA VL: not shown
2 | – | binds | SC73.17 (antibody, V domains shown, Murine hybridoma antibody, first inoculation campaign) VH: EVQLQQSGAELVKPGASVKLSCTASGFNFKDTYMHWVKQRPEQGLEWIGRIDPAIGITEYGPKFQGKATITADTSSNTAYLQLSSLTSEDTAVYYCTRGDFYGNSLDVWGAGTTVTVSS VL: DIVMTQSPATLSVTPGDRVSLSCRASQIISDYLHWYRQKSHESPRLLIKYASQSISGIPSRFSGSGSGSDFTLSINSVEPEDVGVYYCQNGHSFPLTFGTGTKLELK
